Results on 1 molecule are retold here after publication PMC4057743, “Arabidopsis ABA Receptor RCAR1/PYL9 Interacts with an R2R3-Type MYB Transcription Factor, AtMYB44” (International Journal of Molecular Sciences, 2014).

The assay addresses T1, His-ABI1 (Arabidopsis, UniProt P49597 1-434).
T1 construct: ABI1, type 2C protein phosphatase (PP2C), Arabidopsis; ORF subcloned into pET28a via BamH I and Hind III sites; source: Escherichia coli, purified
T1 sequence (looked up): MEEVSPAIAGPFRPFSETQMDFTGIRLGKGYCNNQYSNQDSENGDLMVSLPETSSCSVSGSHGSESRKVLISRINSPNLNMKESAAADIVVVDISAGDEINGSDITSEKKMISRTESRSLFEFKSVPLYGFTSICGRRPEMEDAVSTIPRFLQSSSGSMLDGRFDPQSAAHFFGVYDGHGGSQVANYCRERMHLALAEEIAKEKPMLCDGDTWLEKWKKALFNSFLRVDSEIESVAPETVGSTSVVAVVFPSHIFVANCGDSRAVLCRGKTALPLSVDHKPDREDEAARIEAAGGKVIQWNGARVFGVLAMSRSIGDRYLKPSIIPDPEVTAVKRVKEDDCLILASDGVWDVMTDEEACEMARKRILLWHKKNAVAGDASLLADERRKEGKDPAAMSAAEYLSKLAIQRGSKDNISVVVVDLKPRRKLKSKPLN
Nature of the assay: pull-down; competitive: 5 μg His-RCAR1/PYL9 with 0, 5 or 25 μg His-ABI1 or 25 μg His protein on immobilized GST-AtMYB44 (5 μg); 50 mM Tris-HCl pH 7.5, 100 mM NaCl, 1 mM EDTA, 0.05% β-mercaptoethanol, 0.2% Triton X-100, 10 mM MgCl2; 4 °C, 2 h; 10 μM ABA when indicated; anti-His blot. The conditions noted are these: both partners purified.

B1: His-RCAR1/PYL9 (receptor, Arabidopsis, UniProt Q84MC7 1-187, looked up)
chain: MMDGVEGGTAMYGGLETVQYVRTHHQHLCRENQCTSALVKHIKAPLHLVWSLVRRFDQPQKYKPFVSRCTVIGDPEIGSLREVNVKSGLPATTSTERLELLDDEEHILGIKIIGGDHRLKNYSSILTVHPEIIEGRAGTMVIESFVVDVPQGNTKDETCYFVEALIRCNLKSLADVSERLASQDITQ
notes: ABA receptor RCAR1/PYL9, Arabidopsis; ORF subcloned into pET28a via EcoR I and Xho I sites; source: Escherichia coli, purified
As for B1, the binding result is on record as “binds”.
